# Source: publication PMC5820116 (SLAS discovery : advancing life sciences R & D, 2017)
# B1: Aspartyl-tRNA synthetase (AspRS) (Pseudomonas aeruginosa PAO1) (protein)
# chain: MMRSHYCGQLNESLDGQEVTLCGWVHRRRDHGGVIFLDVRDREGLAQVVFDPDRAETFAKADRVRSEFVVKITGKVRLRPEGARNPNMASGSIEVLGYELEVLNQAETPPFPLDEYSDVGEETRLRYRFIDLRRPEMAAKLKLRARITSSIRRYLDDNGFLDVETPILGRPTPEGARDYLVPSRTYPGHFFALPQSPQLFKQLLMVAGFDRYYQIAKCFRDEDLRADRQPEFTQIDIETSFLDESDIIGITEKMVRQLFKEVLDVEFDEFPHMPFEEAMRRYGSDKPDLRIPLELVDVADQLKEVEFKVFSGPANDPKGRVAALRVPGAASMPRSQIDDYTKFVGIYGAKGLAYIKVNERAKGVEGLQSPIVKFIPEANLNVILDRVGAVDGDIVFFGADKAKIVCDALGALRIKVGHDLKLLTREWAPMWVVDFPMFEENDDGSLSALHHPFTSPKCTPAELEANPGAALSRAYDMVLNGTELGGGSIRIHDKSMQQAVFRVLGIDEAEQEEKFGFLLDALKYGAPPHGGLAFGLDRLVMLMTGASSIREVIAFPKTQSAGDVMTQAPGSVDGKALRELHIRLREQPKAE
# Substrate: Nc1ncnc2c1ncn2[C@@H]1O[C@H](COP(=O)(O)OP(=O)(O)OP(=O)(O)O)[C@@H](O)[C@H]1O
# Test: ATP:PPi exchange steady-state kinetics
# Assay type: biochemical, Pseudomonas aeruginosa
# Settings: Mg2+ active region of the catalytic domain formed by the three structural motifs
protein,measurement,value
B1,Km,495 µM
